The data set is described as follows: protein stability index of a GFP-peptide fusion (GPS, HEK-293T) (PSI 1-6); higher = more stable.
Setting [1] is: treatment: DMSO, c terminus: a fixed tail appended.
Setting [2] is: treatment: MLN4924 1 uM, 8 h, c terminus: a fixed tail appended.
The mark [3] stands for this setting: treatment: DMSO, c terminus: native.
Where [4] appears, read: treatment: MLN4924 1 uM, 8 h, c terminus: native.

± gives the standard deviation.
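Also: 24-mer peptide tiles fused after GFP, lentivirally expressed, FACS-sorted into six equal bins by GFP/DsRed ratio, decoded by Illumina sequencing, PSI is the read-weighted mean bin number.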

With KLYTGPGLAIHCMQVHKETIDAVP [ZNF207], the protein stability index is, setting by setting: under setting [1], 2.5 ± 0.36; under setting [2], 2.61 ± 0.3.
For QRKLKPPIVPKIAGDGDTSNFETY [PRKX] the same measures were 4.38 ± 0.16 and 4.47 ± 0.12.
Turning to VFGVPLTVNVQRTGQPLPQSIQQA [DLC1], the protein stability index runs as follows: under setting [1], 2.79 ± 0.2; under setting [2], 3 ± 0.43.
For LACGTMSSTCGQLASYPLALVRTR [SLC25A25] the same measures were 1.96 ± 0.16 and 2.36 ± 0.12.
As to DSSFPPALAEGYRYPELDTPKLDC [TBX6], the protein stability index turned out to be 4.7 ± 0.25 under setting [1] and 4.72 ± 0.17 under setting [2].
The sequence AKDMKKAVAHMKYMGKGSMTGLAL [MATN2] gave a protein stability index under setting [2] of 2.37 ± 0.3.
Regarding EKLAPSEITEELPSSQLMPVKKQL [ZNF396], the protein stability index stood at 5.17 ± 0.15 under setting [1] and 5.14 ± 0.21 under setting [2].
For GLIPTGSGRHPSHSTTPSGPGDEV [ARFIP2] the same measures were 5.08 ± 0.17 and 5.04 ± 0.1.
The sequence SIGIDNLGLKLEENLQETHSAVL [SLC35F2] returned a protein stability index under setting [3] of 4.34 ± 0.31 and a protein stability index under setting [4] of 4.53 ± 0.19.
Regarding LEKEQVAHIRAERDILVEADGAWV [STK38L], the protein stability index came to 3.8 ± 0.31 under setting [1] and 3.916 ± 0.026 under setting [2].
For DYIMDEDQSKLAGLLDLNNAILQL [ESRRG] the same measures were 2.35 ± 0.25 and 2.6 ± 0.39.
For KLLMADQDSPLDLTVRKSQSEPSE [LCOR] the same measures were 4.82 ± 0.28 and 4.921 ± 0.036.
With TLTVFPPEETTPSPSRESPLSAP [KLHL13], the protein stability index is 5.16 ± 0.15 under setting [3] and 5.18 ± 0.08 under setting [4].
Consider ELNHGRQGENQEHLVIAEMMELGS [FATE1], for which the protein stability index is, setting by setting: under setting [1], 4.3 ± 0.29; under setting [2], 4.27 ± 0.36.
For LPNYNWNSFGLRFGKREAAPGNHG [KISS1] the same measures were 3.14 ± 0.36 and 3.36 ± 0.42.
For CSKVSELTERLKVLEAKMTMLTVI [EMID1] the same measures were 2.63 ± 0.73 and 2.46 ± 0.38.
For RAYDLLRAASENSQDALRVVSTSG [IKZF1] the same measures were 2.62 ± 0.37 and 2.84 ± 0.31.
Consider VQLATLAQRVKEVLPHVPLGVIQR [AUP1], for which the protein stability index worked out at 2.51 ± 0.16 under setting [1] and 2.19 ± 0.29 under setting [2].
For AAENEFVLLKKDVDAAYANKVELQ [KRT71] the same measures were 4.7 ± 0.21 and 4.54 ± 0.39.
In the case of YTFTDTFTEKLWPLFYPGIRAGRK [TRIM39], the protein stability index is, setting by setting: under setting [1], 2.69 ± 0.84; under setting [2], 2.46 ± 0.5.
For ANGEIQRHAEQQALRLEVRAGPDS [CARM1] the same measures were 4.56 ± 0.67 and 4.74 ± 0.19.
On to CLIQKAQWTVGKLNCPFCGARLGG [RNF180], for which the protein stability index reads like this: under setting [1], 2.15 ± 0.18; under setting [2], 2.79 ± 0.36.
For LNLTRKLAQQLCTALLFLATPELS [DYRK1B] the same measures were 2.9 ± 0.51 and 3.21 ± 0.47.
For PVENIPEIILYWKHSTIFDVGENL [SLC25A25] the same measures were 2.37 ± 0.41 and 2.02 ± 0.44.
MAKTLVFSKVKTSLGLDHCHSFIS [ACSBG2]: the protein stability index came to 2.18 ± 0.58 under setting [1] and 1.82 ± 0.52 under setting [2].
For TTEKQRLVKKLQDSVLERWVNDPQ [GOLPH3L] the same measures were 3.71 ± 0.25 and 4.05 ± 0.076.
For NLASYDVCSILLGTSTLLVWVGVI [MCOLN1] the same measures were 3.08 ± 0.6 and 3.19 ± 0.7.
On to LASISTYGFRGEALASISHVAHVT [MLH1], for which the protein stability index runs as follows: under setting [1], 2.19 ± 0.48; under setting [2], 2.19 ± 0.23.
For EGQRQAQEYEALLNIKVKLEAEIA [KRT18] the same measures were 3.94 ± 0.18 and 4 ± 0.43.

Values taken from the supplement of paper PMC10567573.
